From patent US20220273751A1, “GPCR HETEROMER INHIBITORS AND USES THEREOF” (GPCR THERAPEUTICS, INC., priority 2019, published 2022)

Target: CXCR4 (C-X-C Motif Chemokine Receptor 4) (human) (UniProt P61073)
Assay: cell-based or functional assay

Sequence of CXCR4 (C-X-C Motif Chemokine Receptor 4) (human) (P61073 whole entry): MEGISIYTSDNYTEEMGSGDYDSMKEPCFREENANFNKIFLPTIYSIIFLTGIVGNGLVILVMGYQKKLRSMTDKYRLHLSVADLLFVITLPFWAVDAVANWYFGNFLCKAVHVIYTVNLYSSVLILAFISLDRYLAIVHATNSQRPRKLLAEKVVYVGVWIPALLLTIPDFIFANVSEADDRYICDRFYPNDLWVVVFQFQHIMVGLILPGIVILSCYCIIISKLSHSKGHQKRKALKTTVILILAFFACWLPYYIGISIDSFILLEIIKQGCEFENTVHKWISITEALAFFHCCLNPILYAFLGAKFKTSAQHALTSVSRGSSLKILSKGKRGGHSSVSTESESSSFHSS

IC50 of Ca2+ response, MDA-MB-231 cells expressing CXCR4 alone: 579 nM
IC50 of Ca2+ response, MDA-MB-231 cells with CXCR4 + ADRB2, with Carvedilol 600 nM: 1.94 nM
IC50 of Ca2+ response, MDA-MB-231 cells with CXCR4 + ADRB2, without Carvedilol: 88.7 nM
Substance: BKT140 (peptide)
